According to PMC7549792:

Target: Human serum albumin domain I (human)
Assay: SEC; analytical Superdex 75 10/300 calibrated with known proteins; 100 uL of purified DomI at 90 ug/mL; Tris 50 mM, pH 8, 100 mM NaCl; 0.8 mL/min; dimer non-covalent by reducing and non-reducing SDS-PAGE

Q: With “Human serum albumin domain I (domain or fragment)” as the substance, how does the stoichiometry N read?
A: 2
